Assay: label from the status in PepcDB records

Sequence	protein production
MPSFLEISPDKLNRLIGTPGAPRIIDVRTDEDFALDPRLVPGSIRRDHAEVASWADSIDADAVVVVCHRGAKLSHGVAAYLRHAGIEAESLAGGFEAWAAAGPAVPEAKLSRRDAQGRTVWVTRARPKIDRIACPWLIRRFIDPNAVFLFVPAPEVVAVGERFGAAPFDIEDVFWSHRGELCTFDVMVEEFGLASEPLLRLAQIVRAADTARLDLAPEASGLLAASLGLSRMYSDDLEQLEAGMLLYDAFFRWCRDATEETHNWPAPKKRALEHHHHHH	not failed
MGHVSNSPFSVDVLVVGGGPAGSAAAIHAAKAGYSVLLIDAQPFPRDKTCGDGLTPRAVHQLEALGVDVTSRYRSFGLKLHGFGGSVTVPWPESHFGQVSSAMPRMKFDAMLWEMAAQHATTWTATASEVEIDSAIRSVTMSDGRVVKPRSVIVADGVRSTFGKLLGRTWHRGEVYGIAARSYCTTPRSTEPWMHSHLELRDDSTTLPGYGWIFPIGDGTANVGCGALSTDKRPAKINTKKLLRHYASQQTDWEFGTPQRVASALLPMGGAVSTIAGPNWMLIGDAAACVNPLNGEGIDYGLETAALAVAHLDNPLEWPHILRETYGEAFLLARTAARLLTYPQFLPLTGPIALRTPLMASAARLMGNLVTEEDKDIVARAWRAAGWGVTKIRGGSPLWDLEHHHHHH	failed
MSDAQKFQLGTIGALSLSVVSSVSIVICNKALISTLGFTFATTLTSWHLLVTFCSLHVALWMKFFEHKPFDPRAVLGFGVLNVNFSTFLVIGKTSPVTYQVLGHLKTCLVLAFGYLLLKDAFSWRNILGILVAVIGMVLYSYYCTLETQQKATETSTQLPQMDENEKDPLVSAENGSGLISDNGVQKQDPVWNSNKDFQA	failed
MENVKVSVIVPVYNVETYLEEALMSLKNQTLKEIEFLIINDGSTDNSQKIIEEIAQDDPRFRVFNVKNGGIGKAFNLGVSEAKGEYIAEFESDDYVALHAYERLYNTAKSHHADVVRCNWVEFSSEEEVERDILWQYPDKYNQLIDLKTTDLIVQVYPWNAIYKKSMIEKENVTWDEEIKSYGDTGLFWKINSASQNVIFIKDCLYFYRQDNPNSTVNNVATKVPFLFQQFKLIRSNLIEQNKFERYKGYFYKQMFEKYFWAIEKLTHLRDESVYEVIQKVAVDFRQALETDQLNDIDFEYIKQFYQIANDPAAYYEDYLKNLYKVSVVMPIHNASKYLRQTLETVCEQSLREIEIILVENGSTDNTMDIINEFAVKDPRITGISIGKSNPGHARNVGISMARGRYLQFLDADDHFEANLLQDAYYRAYDSATDILLFGMKEKLPNGEVHVVHNPLLTNGGRMSGEEISLDEVTPYLYDKLFLLEYIKENNLVNLEQFVGEDAYFTYTALLGTEKIVALNKYLLTRIVRQDGLMSTYGMNYRDEFNLHDKMLEYLKQHAPNRIEAYRLKIINTLNWFIFDMNRVDQAFKERFYQELKEKYIQQLGLDLVKKEKYSNDPEQVERITRIQNILQYNLEIYQNIYKDFGMKKTFIIPNVHIQERGGKVIFGQEKTQGNGTAIEMFSIIIADNDTSNASGVIDFVYMGDNTKIIHDSLLVSLLIKKEGTTLKSIVLQAEWEKGYTLLQENMYYTFVDNVFTIWAGYTQKYAAFDYNVRILTSREGETHFSVVRQNQGYIQDTMTSIGNELTPINKIEGNEPTTIKKAVSKSLKKAKGLLK	failed
MNHTLQFPKAPEHLLQALNEVIPKCKLMAQQLPETAISLWLIPPVFPTERLDDDIIRRIWSDTPYWIFCWASGLAMAQWLLAEPHHVKDKVVLDFGAGSGVVAIAAKMAGAKRVICCDIDETSLNACRENALLNNVELEYLNDLYLSESVDILLAADVLYDQSNRFFLDEFLKFAPEVWVADSRVKNFSHPGYIKIDERSATTWPDLDEAKEFRNVSFYKTLEHHHHHH	failed
MKSLIIGANGGVGQHLVRKLKARDVDFTAGVRKEEQVEALKADGIDATYIDVAKQSIDELIELFKSYDQILFSVGSGGSTGDDQTIIVDLDGAVKAIKASEQIDHQHFIMVSTYDSRREAFDASGDLKPYTIAKHYADDYLRHANLKYTIVHPGALTNEHETQQFNMSAQFENVQNPSITREDVAEVLVSVLTDEVLQGHEFQIINGDLSLLDATTKYLEE	failed
MNDQVRLHYETWVYPRYPLAASVRRSDTYALSLDALYARFNGTLPPAAARRILLAGCGSFSPYPTAVANPGVPVTALDLSAANLRRARLHAWMHGRFGISFEQGDLMDPAAAQGEYGFIDSFGVIHHLADPLAGLRALERRLAPGGILRLMVYSRGARRVVESARRALRFAGVRDVARLKDLLRRSPPGSRLSHAVEASGEGGGDAGLADALLHPRARIFSIDELMAMVGETGLVPLRFAHSRALAEPGAEVVRLRGLEQAGEPVPNFVLYLGREPRGGCGLAPDALLMLNPALRHDVGVLRLAPLAVPPRLGLKNPVLGFADRRFLRRFSTPLPVSALTPTDRERVGPFLDALFVIPFR	failed
QDHYKVLGLSKLRWQATSDEIRFCYRQKVLKHHPDKKKHRGIVMEKEEYFTCITKAYEQVGMSDVK	failed
MSLKVVSVDTLCCDAGWRNYHFVKLTTDEGIVGWSEFDEGFGSPGVTAVIEQLGKRLVGASVMEHERFFAEAYCLTRPATGGVVSEGIGAIENALLDAKAKTLNVPCYELLGGKLRDRVPVYWSHCPTWRINHPKFFGPPVTDLDGVKRTAEEARERQFRAIKTNIFIHDDGPLHAWRPGFAVPFQPALNVDRKVLRNLRAHLEALRDGAGPDVEILLDLNFNAKPEGYLKILRELADFDLFWVEIDSYSPQGLAYVRNHSPHPISSCETLFGIREFKPFFDANAVDVAIVDTIWNGVWQSMKIAAFADAHDINVAPHNFYGHLCTMINANFAAAVPNLRIMETDIDRLAWEDELFTHAPEYQNGELIIPDRPGWGTDPVEEAILAHPPKVMGGLLQYKRSEGHHHHHH	not failed
MGFIQWCLAHLNYWTIMFLMAIESSFIPFPSEIIVPPAAWMAATGQNGLNVFLVILFATIGAGIGAAVNYILSLLLGRPIVYAFANSKLGHLCLINEEKVRYAERYFDKNGAVSTLVGRLIPAVRQLISIPAGLARMKFLPFISYTMLGAGIWNCILAAIGYNLAKVPGIETQEQLLEKVNKYSHEIGFSIMGVVVVVLLIMFYKKKRRSARKGN	failed
MAGSSTSSSEACTDPYLRCAFNGAALTALGISHSALLAHSPQGCEYLVNNAFASQECDYMETMTLCTKLCVDEIVHGGEDILARTIREVKDLPISALFVLSACGPEIVGDDIVGVCEALQPEVKFRLVPIESAGFRGSQYDGIDIAMDTILKKLVKDDVEKIPGSVCLVAPHANANPTWPADLAWVKQVLFRMGIKVVATLTHRTPIAEIENIASAETSLLLSHDAGQKAADYLSATFGIEQVCKGIPLPIGMTNTQRWLTALGDRFDILKTAEEIVAEGERMVMATCRRKWPMARFMYRTPAAIVADATVGIPLVRFVTEEMEMTPELVALYTSHRSVWELLEGELKSLGLNPKVVYGTDVYKTRKSLQEVRPRVVFGSTIERHASEGLPVAYVVEVVRMMRQFRMINREYFGYTGILNLLECVQNEWVMGWRSKERRYEAKW	failed
